# Experiments:
# [1] = molecular target: baboon CD4 on lymphocytes (baboon); assay: flow cytometry on lymphocytes of different species
# [2] = molecular target: Fc receptors on human cells (γIFN-induced monocytes, γIFN-induced THP-1 cells, ADCC effector cells); assay: cell-based or functional assay
# [3] = molecular target: human CD4 on cells (human) (UniProt P01730); assay: cell-based or functional assay
fold lower reactivity than human [1] [fold],"ADCC, total specific lysis of SupT1 cells [2] [%]",ED50 of cell-cell adhesion (γIFN activated fresh monocytes and CD4+ SupT1 T cells) [2] [µg/mL],"IL-2 Production (IC50), three way MLR [3] [µg/mL]","Proliferation (IC50), three way MLR [3] [µg/mL]",Substance,"ADCC, concentration at maximal cytotoxicity [2] [µg/mL]"
10,50,0.02,–,–,CE9.1 monkey/human chimeric anti-CD4 monoclonal antibody (ATCC No. 69030 construct) (from UniProt P01857 1-330),6
–,–,–,0.02,0.02,CE9γ4λK (antibody),–
